Several values for one entry are separate records, joined by “and”; a condition that tells them apart may be missing. Equal values may be shown once. Ends that are not written are not given here.
Tests used:
[1] = target: the molecule itself; assay: SEC-MALS; STIL CCD (aa 717-758) alone, 100 µl injected at 62 to 4000 µM over an S200 10/300 column; 50 mM Tris pH 7.5, 150 mM NaCl, 2 mM DTT, 0.4 ml/min
[2] = target: the molecule itself; assay: SEC-MALS; apo HsPB3 (aa 884-970) alone, 100 µl at 200 µM over a Superdex 200 10/300 column; 50 mM Tris pH 7.5, 150 mM NaCl, 2 mM DTT
[3] = target: the molecule itself; assay: crystal structure; STIL 726-750 alone, 0.91 Å; sitting drop, 19°C; tetramer (dimer of dimers) generated by crystallographic symmetry
[4] = target: T1, Drosophila Sak/PLK4 Polo-Box-3 domain (aa 657-745), tag cleaved (Drosophila melanogaster (Fruit fly), UniProt O97143); assay: analytical gel filtration
T1 chain: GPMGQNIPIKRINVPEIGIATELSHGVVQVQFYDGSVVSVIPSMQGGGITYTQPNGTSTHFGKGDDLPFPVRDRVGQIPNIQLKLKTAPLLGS

B1: human STIL coiled-coil domain (aa 717-758), tag cleaved (domain or fragment)
chain: GGSGLSPDAYRFLTEQDRQLRLLQAQIQRLLEAQSLMPCSPKTTA
notes: remnant left at the N-terminus of the CCD after TEV cleavage of the His-lipoyl tag; STIL, human, coiled-coil domain, residues 717-758; also called HsCCD; STIL CCD; source: E. coli C41, purified (Ni-NTA, TEV cleavage, reverse Ni-NTA, size exclusion); not shown: His, N-terminal, cleaved; lipoyl domain (B. stearothermophilus dihydrolipoamide acetyltransferase), N-terminal, cleaved
stoichiometry N [1]: ≥ 2 and < 4

B2: human PLK4 Polo-Box-3 domain (aa 884-970), tag cleaved (domain or fragment)
chain: GPMGSAQLLKSVFVKNVGWATQLTSGAVWVQFNDGSQLVVQAGVSSISYTSPNGQTTRYGENEKLPDYIKQKLQCLSSILLMFSNPTPNFH
notes: remnant left at the N-terminus of the PB3 construct after 3C cleavage of the His-MBP tag; PLK4, human, Polo-Box-3 domain, residues 884-970; from an E. coli codon-optimised cDNA (Geneart); also called HsPB3; apoHsPB3; source: E. coli B834, purified (Ni-NTA, 3C cleavage, reverse Ni-NTA, size exclusion); not shown: His, N-terminal, cleaved; MBP, N-terminal, cleaved
stoichiometry N [2]: 2

B3: human STIL coiled-coil domain (aa 726-750), tag cleaved (domain or fragment)
chain: GGSLTEQDRQLRLLQAQIQRLLEAQSLM
notes: remnant left at the N-terminus of the CCD after TEV cleavage of the His-lipoyl tag; STIL, human, coiled-coil domain, residues 726-750; also called STIL^726-750; HsCCD; source: E. coli C41, purified (Ni-NTA, TEV cleavage, reverse Ni-NTA, size exclusion); not shown: His, N-terminal, cleaved; lipoyl domain (B. stearothermophilus dihydrolipoamide acetyltransferase), N-terminal, cleaved
stoichiometry N [3]: 4

NKSDLAALVSLVESVRHEQQQLRNLCEMILEQQQRAK (protein, also: His-lipoyl-tagged) [His-lipoyl-tagged Drosophila Ana2 coiled-coil domain (aa 193-229)]
binding result [4]: no binding
